From US20170335016A1 (Kyowa Kirin, published 2017) come the findings set out here.

The test concerns the target T1, human-CD28-Fc fusion protein (human, UniProt P10747 19-152).
T1 construct: also called Fc fusion protein of the human-CD28 extracellular domain with IgG; hECD28-Fc
In words: ELISA, human-CD28-Fc coated at 1 µg/mL, culture supernatant, anti-human κ HRP detection. As to the method:
The human-CD4O-Fc fusion protein and the human-CD28-Fc fusion protein were adjusted to give a concentration of 1 μg/mL using coating buffer (50 mM carbonate buffer, pH 9). To a well, 50 μL/well of the obtained human-CD4O-Fc fusion prostein or the obtained human-CD28-Fc fusion protein was added into the Maxisorp Plate (manufactured by Nalge Nunc International) respectively, and incubated at 4° C. overnight to be immobilized. Then, 200 μL/well of blocking reagent (SuperBlock (registered trademark) Blocking Buffer, manufactured by Pierce Protein Research) was added to the well, followed by incubation at room temperature for 30 minutes for blocking. Then, 50 μL/well of the culture supernatant comprising each antibody obtained in above Examples was added to the well followed by incubation at room temperature for 1 hour. After washing three times with Washing buffer (0.1% Tween20-TBS), Affinity Isolated Antibody HRP Conjugated Goat F(ab)₂ anti-Human κ (manufactured by EY Laboratories Inc) was diluted with assay diluent (0.1% Tween20-TBS containing Block Ace manufactured by Dainippon Sumitomo Pharma Co. Ltd. by 10%). Then, 50 μL of the obtained solution was added to each well followed by incubation at a room temperature for 1 hour. After washing three times with washing buffer, 50 μL of TMB (manufactured by Dako) coloring substrate solution was added to each well, followed by incubation in a dark room at room temperature. After developping color, 0.5 M vitriol (50 μL/well) was added to stop the reaction. The absorbance at the wavelength of 450 nm was measured with a microplate reader (SPECTRAMAX190, manufactured by Molecular Devices Inc).
For orientation: An ELISA detects its analyte on a solid surface through an enzyme-linked reagent.

T1 sequence (P10747 19-152): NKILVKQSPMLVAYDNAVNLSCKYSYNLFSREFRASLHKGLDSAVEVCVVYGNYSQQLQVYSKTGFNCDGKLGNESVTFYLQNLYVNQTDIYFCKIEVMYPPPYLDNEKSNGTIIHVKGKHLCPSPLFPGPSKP

B1: multivalent antibody 341VL34-CH1-341 (bispecific antibody)
heavy: EVQLVESGGGLVKPGGSLRLSCGGSGFTFNNAWMNWVRQAPGKGLEWVGRIKGKTDGGTADYAAPVKGRFTISRDYSKNTLYLQMNSLTTEDTAVYYCNTDLPYYYGSGRYSGMDVWGQGTTVTVSSASTKGPSVFPLAPCSRSTSESTAALGCLVKDYFPEPVTVSWNSGALTSGVHTFPAVLQSSGLYSLSSVVTVPSSNFGTQTYTCNVDHKPSNTKVDKTVGSQVQLQQSGPGLVKPSQTLSLTCAISGDSVSSNSATWNWIRQSPSRDLEWLGRTYYRSKWYRDYVGSVKSRIIINPDTSNNQFSLQLNSVTPEDTAIYYCTRAQWLGGDYPYYYSMDVWGQGTTVTVSSASTKGPSVFPLAPCSRSTSESTAALGCLVKDYFPEPVTVSWNSGALTSGVHTFPAVLQSSGLYSLSSVVTVPSSNFGTQTYTCNVDHKPSNTKVDKTVERKCCVECPPCPAPPVAGPSVFLFPPKPKDTLMISRTPEVTCVVVDVSHEDPEVQFNWYVDGVEVHNAKTKPREEQFNSTFRVVSVLTVVHQDWLNGKEYKCKVSNKGLPASIEKTISKTKGQPREPQVYTLPPSREEMTKNQVSLTCLVKGFYPSDIAVEWESNGQPENNYKTTPPMLDSDGSFFLYSKLTVDKSRWQQGNVFSCSVMHEALHNHYTQKSLSLSPGK
light: EIVLTQSPATLSLSPGERATLSCRASQSVSSYLAWYQQKPGQAPRLLIYDASNRATGIPARFSGSGSGTDFTLTISSLEPEDFAVYYCQQRSNTFGPGTKVDIK
notes: Anti-CD28 site N-terminal, anti-CD40 site C-terminal; Tested as culture supernatant; not shown: human immunoglobulin kappa light chain constant region
For the molecule B1, the binding result is “binds”.

B2: anti-CD40 antibody 341-1-19 (antibody, IgG2, V domains shown)
VH: QVQLQQSGPGLVKPSQTLSLTCAISGDSVSSNSATWNWIRQSPSRDLEWLGRTYYRSKWYRDYVGSVKSRIIINPDTSNNQFSLQLNSVTPEDTAIYYCTRAQWLGGDYPYYYSMDVWGQGTTVTVSS
VL: EIVLTQSPATLSLSPGERATLSCRASQSVSSYLAWYQQKPGQAPRLLIYDASNRATGIPARFSGSGSGTDFTLTISSLEPEDFAVYYCQQRSNTFGPGTKVDIK
notes: IgG2; Tested as culture supernatant; also called antibody produced by hybridoma KM341-1-19; not shown: human immunoglobulin kappa light chain constant region; kappa inferred from the anti-human κ detecti
Consider B2, for which the binding result is “no binding”.

B3: multivalent antibody 341-CH1-341VL34 (bispecific antibody)
heavy: QVQLQQSGPGLVKPSQTLSLTCAISGDSVSSNSATWNWIRQSPSRDLEWLGRTYYRSKWYRDYVGSVKSRIIINPDTSNNQFSLQLNSVTPEDTAIYYCTRAQWLGGDYPYYYSMDVWGQGTTVTVSSASTKGPSVFPLAPCSRSTSESTAALGCLVKDYFPEPVTVSWNSGALTSGVHTFPAVLQSSGLYSLSSVVTVPSSNFGTQTYTCNVDHKPSNTKVDKTVGSEVQLVESGGGLVKPGGSLRLSCGGSGFTFNNAWMNWVRQAPGKGLEWVGRIKGKTDGGTADYAAPVKGRFTISRDYSKNTLYLQMNSLTTEDTAVYYCNTDLPYYYGSGRYSGMDVWGQGTTVTVSSASTKGPSVFPLAPCSRSTSESTAALGCLVKDYFPEPVTVSWNSGALTSGVHTFPAVLQSSGLYSLSSVVTVPSSNFGTQTYTCNVDHKPSNTKVDKTVERKCCVECPPCPAPPVAGPSVFLFPPKPKDTLMISRTPEVTCVVVDVSHEDPEVQFNWYVDGVEVHNAKTKPREEQFNSTFRVVSVLTVVHQDWLNGKEYKCKVSNKGLPASIEKTISKTKGQPREPQVYTLPPSREEMTKNQVSLTCLVKGFYPSDIAVEWESNGQPENNYKTTPPMLDSDGSFFLYSKLTVDKSRWQQGNVFSCSVMHEALHNHYTQKSLSLSPGK
light: EIVLTQSPATLSLSPGERATLSCRASQSVSSYLAWYQQKPGQAPRLLIYDASNRATGIPARFSGSGSGTDFTLTISSLEPEDFAVYYCQQRSNTFGPGTKVDIK
notes: Anti-CD40 site N-terminal, anti-CD28 site C-terminal; Tested as culture supernatant; not shown: human immunoglobulin kappa light chain constant region
Consider B3, for which the binding result is reported as “binds”.

B4: multivalent antibody 341VL36-CH1-341 (bispecific antibody)
heavy: EVQLVESGGGLVKPGGSLRLSCGGSGFTFNNAWMNWVRQAPGKGLEWVGRIKGKTDGGTADYAAPVKGRFTISRDYSKNTLYLQMNSLKTEDTGVYYCTTYLPYYYGSERWSGMDVWGQGTTVTVSSASTKGPSVFPLAPCSRSTSESTAALGCLVKDYFPEPVTVSWNSGALTSGVHTFPAVLQSSGLYSLSSVVTVPSSNFGTQTYTCNVDHKPSNTKVDKTVGSQVQLQQSGPGLVKPSQTLSLTCAISGDSVSSNSATWNWIRQSPSRDLEWLGRTYYRSKWYRDYVGSVKSRIIINPDTSNNQFSLQLNSVTPEDTAIYYCTRAQWLGGDYPYYYSMDVWGQGTTVTVSSASTKGPSVFPLAPCSRSTSESTAALGCLVKDYFPEPVTVSWNSGALTSGVHTFPAVLQSSGLYSLSSVVTVPSSNFGTQTYTCNVDHKPSNTKVDKTVERKCCVECPPCPAPPVAGPSVFLFPPKPKDTLMISRTPEVTCVVVDVSHEDPEVQFNWYVDGVEVHNAKTKPREEQFNSTFRVVSVLTVVHQDWLNGKEYKCKVSNKGLPASIEKTISKTKGQPREPQVYTLPPSREEMTKNQVSLTCLVKGFYPSDIAVEWESNGQPENNYKTTPPMLDSDGSFFLYSKLTVDKSRWQQGNVFSCSVMHEALHNHYTQKSLSLSPGK
light: EIVLTQSPATLSLSPGERATLSCRASQSVSSYLAWYQQKPGQAPRLLIYDASNRATGIPARFSGSGSGTDFTLTISSLEPEDFAVYYCQQRSNTFGPGTKVDIK
notes: Anti-CD28 site N-terminal, anti-CD40 site C-terminal; Entry probably still carries the signal peptide; Tested as culture supernatant; not shown: human immunoglobulin kappa light chain constant region
B4: the binding result is listed as “binds”.

B5: multivalent antibody 341-CH1-341VL36 (bispecific antibody)
heavy: QVQLQQSGPGLVKPSQTLSLTCAISGDSVSSNSATWNWIRQSPSRDLEWLGRTYYRSKWYRDYVGSVKSRIIINPDTSNNQFSLQLNSVTPEDTAIYYCTRAQWLGGDYPYYYSMDVWGQGTTVTVSSASTKGPSVFPLAPCSRSTSESTAALGCLVKDYFPEPVTVSWNSGALTSGVHTFPAVLQSSGLYSLSSVVTVPSSNFGTQTYTCNVDHKPSNTKVDKTVGSEVQLVESGGGLVKPGGSLRLSCGGSGFTFNNAWMNWVRQAPGKGLEWVGRIKGKTDGGTADYAAPVKGRFTISRDYSKNTLYLQMNSLKTEDTGVYYCTTYLPYYYGSERWSGMDVWGQGTTVTVSSASTKGPSVFPLAPCSRSTSESTAALGCLVKDYFPEPVTVSWNSGALTSGVHTFPAVLQSSGLYSLSSVVTVPSSNFGTQTYTCNVDHKPSNTKVDKTVERKCCVECPPCPAPPVAGPSVFLFPPKPKDTLMISRTPEVTCVVVDVSHEDPEVQFNWYVDGVEVHNAKTKPREEQFNSTFRVVSVLTVVHQDWLNGKEYKCKVSNKGLPASIEKTISKTKGQPREPQVYTLPPSREEMTKNQVSLTCLVKGFYPSDIAVEWESNGQPENNYKTTPPMLDSDGSFFLYSKLTVDKSRWQQGNVFSCSVMHEALHNHYTQKSLSLSPGK
light: EIVLTQSPATLSLSPGERATLSCRASQSVSSYLAWYQQKPGQAPRLLIYDASNRATGIPARFSGSGSGTDFTLTISSLEPEDFAVYYCQQRSNTFGPGTKVDIK
notes: Anti-CD40 site N-terminal, anti-CD28 site C-terminal; Entry probably still carries the signal peptide; Tested as culture supernatant; not shown: human immunoglobulin kappa light chain constant region
As for B5, the binding result was “binds”.

B6: multivalent antibody 341VL36-CH1-H-CH2-CH3-341-CH1 (bispecific antibody)
heavy: EVQLVESGGGLVKPGGSLRLSCGGSGFTFNNAWMNWVRQAPGKGLEWVGRIKGKTDGGTADYAAPVKGRFTISRDYSKNTLYLQMNSLKTEDTGVYYCTTYLPYYYGSERWSGMDVWGQGTTVTVSSASTKGPSVFPLAPCSRSTSESTAALGCLVKDYFPEPVTVSWNSGALTSGVHTFPAVLQSSGLYSLSSVVTVPSSNFGTQTYTCNVDHKPSNTKVDKTVERKCCVECPPCPAPPVAGPSVFLFPPKPKDTLMISRTPEVTCVVVDVSHEDPEVQFNWYVDGVEVHNAKTKPREEQFNSTFRVVSVLTVVHQDWLNGKEYKCKVSNKGLPASIEKTISKTKGQPREPQVYTLPPSREEMTKNQVSLTCLVKGFYPSDIAVEWESNGQPENNYKTTPPMLDSDGSFFLYSKLTVDKSRWQQGNVFSCSVMHEALHNHYTQKSLSLSPGKGSQVQLQQSGPGLVKPSQTLSLTCAISGDSVSSNSATWNWIRQSPSRDLEWLGRTYYRSKWYRDYVGSVKSRIIINPDTSNNQFSLQLNSVTPEDTAIYYCTRAQWLGGDYPYYYSMDVWGQGTTVTVSSASTKGPSVFPLAPCSRSTSESTAALGCLVKDYFPEPVTVSWNSGALTSGVHTFPAVLQSSGLYSLSSVVTVPSSNFGTQTYTCNVDHKPSNTKVDKTV
light: EIVLTQSPATLSLSPGERATLSCRASQSVSSYLAWYQQKPGQAPRLLIYDASNRATGIPARFSGSGSGTDFTLTISSLEPEDFAVYYCQQRSNTFGPGTKVDIK
notes: Entry probably still carries the signal peptide; Tested as culture supernatant; not shown: human immunoglobulin kappa light chain constant region
For B6, the binding result is reported as “binds”.

B7: DVD341VL34-341 (bispecific antibody, human IgG2, kappa)
heavy: EVQLVESGGGLVKPGGSLRLSCGGSGFTFNNAWMNWVRQAPGKGLEWVGRIKGKTDGGTADYAAPVKGRFTISRDYSKNTLYLQMNSLTTEDTAVYYCNTDLPYYYGSGRYSGMDVWGQGTTVTVSSASTKGPQVQLQQSGPGLVKPSQTLSLTCAISGDSVSSNSATWNWIRQSPSRDLEWLGRTYYRSKWYRDYVGSVKSRIIINPDTSNNQFSLQLNSVTPEDTAIYYCTRAQWLGGDYPYYYSMDVWGQGTTVTVSSASTKGPSVFPLAPCSRSTSESTAALGCLVKDYFPEPVTVSWNSGALTSGVHTFPAVLQSSGLYSLSSVVTVPSSNFGTQTYTCNVDHKPSNTKVDKTVERKCCVECPPCPAPPVAGPSVFLFPPKPKDTLMISRTPEVTCVVVDVSHEDPEVQFNWYVDGVEVHNAKTKPREEQFNSTFRVVSVLTVVHQDWLNGKEYKCKVSNKGLPASIEKTISKTKGQPREPQVYTLPPSREEMTKNQVSLTCLVKGFYPSDIAVEWESNGQPENNYKTTPPMLDSDGSFFLYSKLTVDKSRWQQGNVFSCSVMHEALHNHYTQKSLSLSPGK
light: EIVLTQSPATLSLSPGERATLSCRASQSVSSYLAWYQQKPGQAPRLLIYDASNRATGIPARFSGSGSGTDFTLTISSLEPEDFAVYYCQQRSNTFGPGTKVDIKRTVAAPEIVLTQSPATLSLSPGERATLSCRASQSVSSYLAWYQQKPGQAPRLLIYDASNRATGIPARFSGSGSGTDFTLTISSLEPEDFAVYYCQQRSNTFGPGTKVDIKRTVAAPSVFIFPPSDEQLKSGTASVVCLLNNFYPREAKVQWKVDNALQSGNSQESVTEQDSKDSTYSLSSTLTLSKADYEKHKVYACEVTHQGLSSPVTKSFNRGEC
notes: Comparison molecule with a short linker, after Wu et al. Entries probably still carry signal peptides; Tested as culture supernatant
Regarding B7, the binding result is given as “binds”.

B8: DVD341VL36-341 (bispecific antibody, human IgG2, kappa)
heavy: EVQLVESGGGLVKPGGSLRLSCGGSGFTFNNAWMNWVRQAPGKGLEWVGRIKGKTDGGTADYAAPVKGRFTISRDYSKNTLYLQMNSLKTEDTGVYYCTTYLPYYYGSERWSGMDVWGQGTTVTVSSASTKGPQVQLQQSGPGLVKPSQTLSLTCAISGDSVSSNSATWNWIRQSPSRDLEWLGRTYYRSKWYRDYVGSVKSRIIINPDTSNNQFSLQLNSVTPEDTAIYYCTRAQWLGGDYPYYYSMDVWGQGTTVTVSSASTKGPSVFPLAPCSRSTSESTAALGCLVKDYFPEPVTVSWNSGALTSGVHTFPAVLQSSGLYSLSSVVTVPSSNFGTQTYTCNVDHKPSNTKVDKTVERKCCVECPPCPAPPVAGPSVFLFPPKPKDTLMISRTPEVTCVVVDVSHEDPEVQFNWYVDGVEVHNAKTKPREEQFNSTFRVVSVLTVVHQDWLNGKEYKCKVSNKGLPASIEKTISKTKGQPREPQVYTLPPSREEMTKNQVSLTCLVKGFYPSDIAVEWESNGQPENNYKTTPPMLDSDGSFFLYSKLTVDKSRWQQGNVFSCSVMHEALHNHYTQKSLSLSPGK
light: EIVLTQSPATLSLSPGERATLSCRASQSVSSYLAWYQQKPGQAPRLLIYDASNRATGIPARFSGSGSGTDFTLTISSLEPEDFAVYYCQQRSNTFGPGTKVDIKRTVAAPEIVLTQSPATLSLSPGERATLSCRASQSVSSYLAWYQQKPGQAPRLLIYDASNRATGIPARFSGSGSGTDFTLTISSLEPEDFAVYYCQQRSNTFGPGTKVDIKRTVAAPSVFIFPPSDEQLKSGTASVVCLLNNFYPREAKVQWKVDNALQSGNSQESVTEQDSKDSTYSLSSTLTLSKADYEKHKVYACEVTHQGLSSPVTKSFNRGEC
notes: as for B7
With B8, the binding result is “binds”.
